For three molecules, ECL signal and ECL signal/noise ratio results are on record in patent publication US20120316071A1 (published 2012).

Test [1] has as its target T1, Recombinant Human DLL4 (R&D Systems Cat#1506-D4/CF) (human, UniProt Q9NR61 27-524).
T1 construct: Bought recombinant protein; also called delta-like protein 4; rHuman DLL4
Put plainly: MSD multispot ECL, antigen spotted on plate; Fab 0.03188 uM; blank spot 536.

For test [2], the target named is T2, rHuman EGF R/Fc Chimera, CF (R&D Systems Cat#344-ER) (human, UniProt P00533 25-645).
T2 construct: Bought recombinant protein; also called epidermal growth factor receptor; Fc part of the bought chimera not given
The test is described as above.

In test [3] the target is T3, rHuman CD44/Fc Chimera, CF (R&D Systems Cat#3660-CD) (human, UniProt P16070 21-220).
T3 construct: Bought recombinant protein; Fc part of the bought chimera not given
The test is described as above.

Test [4] deals with T4, rHuman ErbB2/Fc Chimera, CF (R&D Systems Cat#1129-ER) (human, UniProt P04626 23-652).
T4 construct: Bought recombinant protein; also called human epidermal growth factor 2 receptor; Fc part of the bought chimera not given
The description is as above.

The target of test [5] is T5, rHuman Erythropoietin R/Fc Chimera, CF (R&D Systems Cat#963-ER) (human, UniProt P19235 25-250).
T5 construct: Bought recombinant protein; also called EPO R/Fc; Epo R; Fc part of the bought chimera not given
T5 sequence (looked up): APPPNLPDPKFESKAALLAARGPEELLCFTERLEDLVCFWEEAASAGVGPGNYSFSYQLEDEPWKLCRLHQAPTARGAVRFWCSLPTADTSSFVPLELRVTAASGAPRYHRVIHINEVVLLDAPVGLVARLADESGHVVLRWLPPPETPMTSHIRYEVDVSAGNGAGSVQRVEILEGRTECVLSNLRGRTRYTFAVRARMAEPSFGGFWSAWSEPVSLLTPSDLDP
The description is as above.

For test [6], the target named is T6, rHuman P-Cadherin/Fc Chimera, CF (R&D Systems Cat#861-PC) (human, UniProt P22223 108-654).
T6 construct: Bought recombinant protein; Fc part of the bought chimera not given
The test is described as above.

Test [7] deals with T7, rHuman IGF-1 sR, CF (R&D Systems Cat#391-GR) (human, UniProt P08069 31-932).
T7 construct: Bought recombinant soluble receptor; also called insulin-like growth factor-1 soluble receptor
Described as above.

Test [8] concerns the target T8, rHuman Notch-1/Fc Chimera, CF (R&D Systems Cat#3647-TK) (human, UniProt P46531 19-526).
T8 construct: Bought recombinant protein; Fc part of the bought chimera not given
The description is as above.

Test [9] deals with T9, rHuman HGF R/c-MET/Fc Chimera, CF (R&D Systems Cat#358-MT/CF) (human, UniProt P08581 25-932).
T9 construct: Bought recombinant protein; also called HGF R/Fc; hepatocyte growth factor receptor; Fc part of the bought chimera not given
The test is described as above.

Test [10] concerns the target T10, rHuman CD44/Fc Chimera, CF (R&D Systems Cat#3660-CD) (human, UniProt P16070 21-220).
T10 construct: Bought reagent; Fc part of the bought chimera not given
Put plainly: MSD Multispot ECL, antigen spotted on plate, Fab 8.1 nM; blank spot 435.

In test [11] the target is T11, rHuman IGF-1 sR, (IGF-1 sR), CF (R&D Systems Cat#391-GR) (human, UniProt P08069 31-932).
T11 construct: Bought soluble receptor; also called insulin-like growth factor-1 soluble receptor
The description is as above.

The target of test [12] is T12, rHuman EGF R/Fc Chimera, CF (R&D Systems Cat#344-ER) (human, UniProt P00533 25-645).
T12 construct: Bought reagent; also called epidermal growth factor receptor; Fc part of the bought chimera not given
The description is as above.

Test [13] deals with T13, rHuman HGF R/c-MET/Fc Chimera, CF (R&D Systems Cat#358-MT/CF) (human, UniProt P08581 25-932).
T13 construct: Bought recombinant protein; also called HGF R/Fc; Fc part of the bought chimera not given
Put plainly: ECL multispot (MSD) assay, spotted antigen; Fab 200.00 (head prints uM).

The target in test [14] is T14, rHuman CD44/Fc Chimera, CF (R&D Systems Cat#3660-CD) (human, UniProt P16070 21-220).
T14 construct: Bought recombinant protein; Fc part of the bought chimera not given
The test is described as above.

Test [15] concerns the target T15, rHuman IGF-1 sR, CF (R&D Systems Cat#391-GR) (human, UniProt P08069 31-932).
T15 construct: Bought soluble receptor; The column head prints only 'IGF-1'; also called insulin-like growth factor-1 soluble receptor
The test is described as above.

Test [16] has as its target T16, rHuman Notch-1/Fc Chimera, CF (R&D Systems Cat#3647-TK) (human, UniProt P46531 19-526).
T16 construct: Bought recombinant protein; Fc part of the bought chimera not given
The description is as above.

For test [17], the target named is T17, Recombinant Human DLL4 (R&D Systems Cat#1506-D4/CF) (human, UniProt Q9NR61 27-524).
T17 construct: Bought recombinant protein; also called delta-like protein 4
Described as above.

Test [18] deals with T18, rHuman Erythropoietin R/Fc Chimera, CF (R&D Systems Cat#963-ER) (human, UniProt P19235 25-250).
T18 construct: Bought recombinant protein; also called EPO R; EPO R/Fc; Fc part of the bought chimera not given
T18 sequence (looked up): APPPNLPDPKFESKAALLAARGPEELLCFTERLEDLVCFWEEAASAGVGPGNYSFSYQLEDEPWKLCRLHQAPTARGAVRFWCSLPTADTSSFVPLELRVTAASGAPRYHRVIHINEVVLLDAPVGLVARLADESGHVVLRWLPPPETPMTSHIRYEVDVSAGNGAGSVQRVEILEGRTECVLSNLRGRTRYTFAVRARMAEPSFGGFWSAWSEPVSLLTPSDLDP
The description is as above.

B1: Fab VH4-34_IGHD7-27*01_IGHJ4*01 & L5_IGKJ1*01 (Fab, V domains shown)
VH: QVQLQQWGAGLLKPSETLSLTCAVYGGSFSGYYWSWIRQPPGKGLEWIGEINHSGSTNYNPSLKSRVTISVDTSKNQFSLKLSSVTAADTAVYYCARANWGDYFDYWGQGTLVTVSS
VL: DIQMTQSPSSVSASVGDRVTITCRASQGISSWLAWYQQKPGKAPKLLIYAASSLQSGVPSRFSGSGSGTDFTLTISSLQPEDFATYYCQQANSFPPWTFGQGTKVEIKR
notes: Germline library Fab expressed in E. coli; VH was cloned into Plasmid A, which adds CH1 with His6 and Flag tags
For the molecule B1, the ECL signal turned out to be 1280 in [1]; 694 in test [2]; 653 in test [3]; 584 in [4]; 789 in test [5]; 775 in test [6]. The ECL signal in [7] came out at 765; in test [8] it was 849; in test [9], 693.

B2: Fab VH1-8_IGHD2-2*01_IGHJ6*01 & L12_IGKJ1*01 (Fab, V domains shown)
VH: QVQLVQSGAEVKKPGASVKVSCKASGYTFTSYDINWVRQATGQGLEWMGWMNPNSGNTGYAQKFQGRVTMTRNTSISTAYMELSSLRSEDTAVYYCARGGYCSSTSCYADYYYYYGMDVWGQGTTVTVSS
VL: not shown
With B2, the ECL signal in test [10] worked out at 528; in [11] it was 518; in [12], 560.

B3: Fab VH5-51_IGHD5-18*01>3_IGHJ4*01 G100K/G104T & V3-4_IGLJ1*01 (Fab, V domains shown)
VH: EVQLVQSGAEVKKPGESLKISCKGSGYSFTSYWIGWVRQMPGKGLEWMGIIYPGDSDTRYSPSFQGQVTISADKSISTAYLQWSSLKASDTAMYYCARRKYSYTYDYFDYWGQGTLVTVSS
VL: QTVVTQEPSFSVSPGGTVTLTCGLSSGSVSTSYYPSWYQQTPGQAPRTLIYSTNTRSSGVPDRFSGSILGNKAALTITGAQADDESDYYCVLYMGSGISYVFGTGTKVTVL
notes: Tested as a Fab; The constant parts are the same as for the parent Fab (CH1 with His6/Flag tags, lambda CL); also called KT double mutant; H:KT
As for B3, the ECL signal/noise ratio in [13] amounted to 1.7; in [14] it was 1.4; in [15] it was 1.5; in [16] it was 1.7; in test [17] it was 76.9; in test [18], 1.7.
